Experiments:
Nc1nc(=O)[nH]cc1F = experiment: purified protein; assay type: biochemical, Saccharomyces cerevisiae; details: PBS, 37 °C, one experiment
LinkCD = experiment: UV absorbance at […] nm of quenched aliquots, double-reciprocal plot; assay type: biochemical, Homo sapiens; Saccharomyces cerevisiae; details: read-out: Enzyme kinetics (5-FC) / Km; PBS, 37 °C; CD active site

Compound	Vmax (Nc1nc(=O)[nH]cc1F) [µM/min/mg]	Km (LinkCD) [µM]
CD (yeast cytosine deaminase) (Saccharomyces cerevisiae S288C)	120000	–
Nc1nc(=O)[nH]cc1F [5-FC, 5-fluorocytosine]	–	330 ± 40

Source: paper PMC2706098 (Molecular pharmaceutics, 2009)
